Drawing on the RNAGym collection of RNA variant scans (doi:10.1093/nar/gkz1192), this text covers self-cleavage for 167 variants.

The labels stand for the following.
B1: CPEB3 Ribozyme (parent)
chain: UAACAGGGGGCCACAGCAGAAGCGUUCACGUCGCAGCCCCUGUCAGAUUCUGGUGAAUCUGCGAAUUCUGCUGUAUAUCUC

In the data set the parent is B1. The data set is described as follows: self-cleavage, relative activity (ratio to wild type); higher = more cleavage; in vitro, sequencing. The essentials:
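Barcoded CPEB3 ribozyme mutants, produced by rounds of error-prone PCR, self-cleaved while being transcribed with T7 RNA polymerase for 5 hours at 37°C and during a subsequent 15 min DNase I step before EDTA was added. Sequencing of template-switched cDNA on Illumina gave cleaved and total reads, and DNA sequencing assigned barcodes to variants. Each variant's relative activity is its cleaved/total read fraction divided by the unmutated ribozyme's fraction, averaged across three batches. A variant needed a minimum of 5 reads.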
In the case of A65U U80G, the self-cleavage came to 0.21.

For the variant A65U U80C, the self-cleavage amounted to 0.38.

Turning to A65U U80A, the self-cleavage stood at 0.15.

In the case of U66C U67C, the self-cleavage stood at 0.32.

With U66C U67G, the self-cleavage is 0.32.

For U66C U67A, the self-cleavage stood at 0.25.

In the case of U69A, the self-cleavage turned out to be 0.63.

As to U69G, the self-cleavage stood at 0.74.

Turning to U69C, the self-cleavage was 0.59.

Turning to U69C A77U, the self-cleavage stood at 0.77.

On to U69C A77C, for which the self-cleavage was 0.54.

As to U69C A77G, the self-cleavage stood at 0.67.

Turning to U69G U80A, the self-cleavage came to 0.88.

For U69G U80C, the self-cleavage was found to be 0.82.

As to U69G U80G, the self-cleavage was 0.61.

Take U69G C79U: the self-cleavage turned out to be 0.72.

As for U66G U78C, the self-cleavage was 0.41.

In the case of U69C C81A, the self-cleavage turned out to be 1.16.

U69C C81G: the self-cleavage came to 0.89.

For U69C C81U, the self-cleavage is 0.5.

On to A65U U66C, for which the self-cleavage amounted to 0.38.

In the case of U67C G73U, the self-cleavage is 0.46.

Turning to U67C G73C, the self-cleavage came out at 0.46.

Consider U67C G73A, for which the self-cleavage was 0.34.

Regarding U69A G70A, the self-cleavage is 0.24.

Turning to U67G A75U, the self-cleavage is 0.6.

Turning to A65U, the self-cleavage was found to be 0.33.

Take A65G: the self-cleavage stood at 0.52.

Take U67A U80C: the self-cleavage worked out at 0.58.

As to U67A U80A, the self-cleavage amounted to 0.58.

For the variant U67A U74G, the self-cleavage is 0.81.

For the variant U67A U74C, the self-cleavage turned out to be 0.92.

As for U67A U74A, the self-cleavage was 0.8.

On to A65G G73A, for which the self-cleavage was 1.06.

As for A65G G73U, the self-cleavage was found to be 1.19.

With A65G G73C, the self-cleavage was 0.74.

With U69A U76C, the self-cleavage is 0.7.

Turning to U69A U76A, the self-cleavage was found to be 0.84.

Regarding U69A U76G, the self-cleavage came out at 0.7.

For U67C G70A, the self-cleavage came out at 0.18.

For the variant U67C G70U, the self-cleavage amounted to 0.26.

In the case of U67C G70C, the self-cleavage was found to be 0.39.

Regarding U67G C68U, the self-cleavage was 0.44.

As to U66A G73A, the self-cleavage was determined as 1.04.

With C68A A75U, the self-cleavage stood at 0.28.

Consider U67C U80A, for which the self-cleavage was found to be 0.32.

As to U67C U80C, the self-cleavage turned out to be 0.4.

Consider U69C U80A, for which the self-cleavage worked out at 0.79.

U69C U80C: the self-cleavage stood at 0.52.

For the variant U69C U80G, the self-cleavage worked out at 0.73.

As for A65G U80G, the self-cleavage turned out to be 0.66.

With A65G U80C, the self-cleavage came out at 0.59.

With A65G U80A, the self-cleavage was 0.53.

For the variant U67C A77G, the self-cleavage was determined as 0.3.

As to U67C A77U, the self-cleavage was 0.34.

In the case of A65G G70A, the self-cleavage stood at 0.32.

For U69C U74A, the self-cleavage turned out to be 0.55.

Consider U69C U74G, for which the self-cleavage is 0.88.

U69C U74C: the self-cleavage is 0.74.

For the variant U67A C71U, the self-cleavage was determined as 0.11.

Take U67A C71G: the self-cleavage is 0.33.

Turning to U67A C71A, the self-cleavage is 0.3.

Consider U69A C81U, for which the self-cleavage amounted to 0.84.

For U69A C81A, the self-cleavage worked out at 0.98.

As to U67C U69A, the self-cleavage stood at 0.33.

U67C U69G: the self-cleavage was 0.45.

As for U67C U69C, the self-cleavage was found to be 0.32.

On to U67G U80C, for which the self-cleavage turned out to be 0.34.

With U67G U80A, the self-cleavage is 0.4.

For the variant A65G A75U, the self-cleavage turned out to be 0.41.

With A65G A75G, the self-cleavage was found to be 0.4.

Turning to U66A A75U, the self-cleavage is 0.68.

As for U67G U72C, the self-cleavage was 0.14.

Consider U67G U72A, for which the self-cleavage stood at 0.36.

Turning to C68A G73U, the self-cleavage turned out to be 0.85.

Regarding A65U U67A, the self-cleavage was 0.02.

As to A65U U67C, the self-cleavage came out at 0.28.

Take U66C A77G: the self-cleavage was 0.4.

Take U66C A77U: the self-cleavage was 0.34.

On to U66C U74A, for which the self-cleavage was 0.62.

For U66C U74C, the self-cleavage was found to be 0.66.

Regarding U67C C79A, the self-cleavage was 0.49.

For the variant U67C C79U, the self-cleavage came to 0.32.

As for C68U U72C, the self-cleavage came to 0.93.

As for C68U U72A, the self-cleavage worked out at 0.35.

On to C68U U72G, for which the self-cleavage is 0.95.

For the variant A65G U74A, the self-cleavage was 0.86.

Take A65G U74C: the self-cleavage was 0.79.

On to A65G U74G, for which the self-cleavage came out at 0.89.

For G70A A77G, the self-cleavage stood at 0.53.

Turning to G70A A77U, the self-cleavage amounted to 1.07.

With U69G U72A, the self-cleavage was found to be 0.35.

As to U69G U72C, the self-cleavage turned out to be 0.44.

With U69C U72C, the self-cleavage amounted to 0.37.

Turning to U69C U72G, the self-cleavage came to 0.35.

As to U69C U72A, the self-cleavage came out at 0.36.

Turning to C68A U80C, the self-cleavage stood at 0.53.

For U66A U76C, the self-cleavage worked out at 0.57.

U69C A75G: the self-cleavage stood at 0.5.

Turning to U69C A75U, the self-cleavage was determined as 0.44.

Turning to G70A C71U, the self-cleavage amounted to 0.41.

Consider G70A C71G, for which the self-cleavage came to 0.23.

In the case of U69A C71G, the self-cleavage was determined as 0.22.

In the case of U69A C71U, the self-cleavage is 0.33.

For A65G U78G, the self-cleavage worked out at 0.44.

For A65G U78C, the self-cleavage stood at 0.42.

Regarding A65G U78A, the self-cleavage turned out to be 0.6.

U67A A75G: the self-cleavage was found to be 0.54.

For the variant U67A A75U, the self-cleavage came to 0.65.

On to C68G U78C, for which the self-cleavage is 0.69.

For G70A U76A, the self-cleavage is 0.8.

For G70A U76C, the self-cleavage was 0.75.

On to A65U C68A, for which the self-cleavage stood at 0.21.

Consider A65U C68U, for which the self-cleavage turned out to be 0.31.

Consider U66A A77G, for which the self-cleavage came out at 0.45.

As for U66A A77U, the self-cleavage is 0.65.

In the case of C68U A75G, the self-cleavage came out at 0.67.

Consider C68U A75U, for which the self-cleavage was 1.02.

As for C68G A77G, the self-cleavage was determined as 0.61.

Turning to U69A U80C, the self-cleavage is 0.56.

Take U69A U80G: the self-cleavage worked out at 0.76.

Consider U69A U80A, for which the self-cleavage is 0.74.

As for C68G U69C, the self-cleavage is 0.27.

For U67G U78C, the self-cleavage is 0.3.

As to U67G U78A, the self-cleavage was 0.67.

U67G G70C: the self-cleavage stood at 0.21.

In the case of C68A U78C, the self-cleavage stood at 0.5.

Consider A65G C79A, for which the self-cleavage was determined as 0.67.

A65G C79G: the self-cleavage is 0.74.

C68A: the self-cleavage came out at 0.41.

Consider C68G, for which the self-cleavage stood at 0.47.

In the case of C68U, the self-cleavage was determined as 1.06.

With G70A U74A, the self-cleavage is 0.73.

For the variant G70A U74C, the self-cleavage turned out to be 0.69.

As for U69G C71A, the self-cleavage was 0.09.

As to C68A U69C, the self-cleavage amounted to 0.17.

As for C68A U69G, the self-cleavage was 0.42.

Take C68A U69A: the self-cleavage came out at 0.25.

In the case of U69G U78A, the self-cleavage worked out at 0.45.

With U69G U78C, the self-cleavage amounted to 0.71.

Take U67C C68U: the self-cleavage amounted to 0.46.

With U67C C68A, the self-cleavage came to 0.38.

As for U69A A75G, the self-cleavage was found to be 0.53.

As to U69A A75C, the self-cleavage came to 0.55.

As for U69A A75U, the self-cleavage was 0.66.

Turning to U67A G73A, the self-cleavage was 1.05.

As for U67A G73C, the self-cleavage is 1.07.

Regarding U69C U76C, the self-cleavage is 0.66.

Regarding U69C U76A, the self-cleavage is 0.75.

On to U69C U76G, for which the self-cleavage amounted to 0.79.

For U69A A77G, the self-cleavage came to 0.72.

Take U69A A77U: the self-cleavage stood at 0.75.

For U67G A77C, the self-cleavage was 0.32.

As to U67A U69A, the self-cleavage was determined as 0.3.

U67A U69C: the self-cleavage worked out at 0.4.

As for U66G U80C, the self-cleavage stood at 0.54.

U66G U80A: the self-cleavage stood at 0.67.

Regarding U69G A75U, the self-cleavage was 0.78.

For the variant U67G, the self-cleavage came out at 0.4.

Consider U67C, for which the self-cleavage amounted to 0.32.

Turning to U67A, the self-cleavage is 0.54.

As to A65C U78C, the self-cleavage was determined as 0.15.

With C68A G70U, the self-cleavage was found to be 0.36.

As to U69G C81A, the self-cleavage stood at 0.86.

Regarding U69A G73C, the self-cleavage came out at 0.65.

In the case of U69A G73U, the self-cleavage is 0.93.

As for U69A G73A, the self-cleavage stood at 1.16.
